Assay results published in paper doi:10.1101/2025.10.01.679806 (bioRxiv, 2025).

Biological target: the molecule itself
Experiment: methyl-TROSY NMR

B1: Bpa 45-153 (domain or fragment)
chain: AKVMRIGTMIKQLLEEVRAAPLDEASRNRLRDIHATSIRELEDGLAPELREELDRLTLPFNEDAVPSDAELRIAQAQLVGWLEGLFHGIQTALFAQQMAARAQLQQMRQ
  stoichiometry N: 4
